B1: VHH peptide monomer E3 (VHH)
VHH: QVQLVESGGGLVQTGGSLRLSCASSGSIAGFETVTWSRQAPGKSLQWVASMTKTNNEIYSDSVKGRFIISRDNAKNTVYLQMNSLKPEDTGVYFCKGPELRGQGIQVTVSS
notes: also called VHH E3
B2: ABAB-IgG1 tetra-specific, octameric binding agent (bispecific antibody)
heavy: not shown
light: QLQLVETGGGLVQPGGSLRLSCAASGFTFSDYVMTWVRQAPGKGPEWIATINTDGSTMRDDSTKGRFTISRDNAKNTLYLQMTSLKPEDTALYYCARGRVISASAIRGAVRGPGTQVTVSSGGGGSGGGGSGGGGSQVQLVESGGGLVQTGGSLRLSCASSGSIAGFETVTWSRQAPGKSLQWVASMTKTNNEIYSDSVKGRFIISRDNAKNTVYLQMNSLKPEDTGVYFCKGPELRGQGIQVTVSSRTVAAPSVFIFPPSDEQLKSGTASVVCLLNNFYPREAKVQWKVDNALQSGNSQESVTEQDSKDSTYSLSSTLTLSKADYEKHKVYACEVTHQGLSSPVTKSFNRGEC
notes: also called IgG-ABAB; IgG-ABBA

Assays:
[1] = target: T1, Clostridium difficile toxin B (TcdB) (Clostridium difficile, UniProt P18177 2-2366); assay: ELISA, plate coated with 1 ug/ml TcdB
T1 construct: also called TxB
T1 sequence (P18177 2-2366 limits assumed): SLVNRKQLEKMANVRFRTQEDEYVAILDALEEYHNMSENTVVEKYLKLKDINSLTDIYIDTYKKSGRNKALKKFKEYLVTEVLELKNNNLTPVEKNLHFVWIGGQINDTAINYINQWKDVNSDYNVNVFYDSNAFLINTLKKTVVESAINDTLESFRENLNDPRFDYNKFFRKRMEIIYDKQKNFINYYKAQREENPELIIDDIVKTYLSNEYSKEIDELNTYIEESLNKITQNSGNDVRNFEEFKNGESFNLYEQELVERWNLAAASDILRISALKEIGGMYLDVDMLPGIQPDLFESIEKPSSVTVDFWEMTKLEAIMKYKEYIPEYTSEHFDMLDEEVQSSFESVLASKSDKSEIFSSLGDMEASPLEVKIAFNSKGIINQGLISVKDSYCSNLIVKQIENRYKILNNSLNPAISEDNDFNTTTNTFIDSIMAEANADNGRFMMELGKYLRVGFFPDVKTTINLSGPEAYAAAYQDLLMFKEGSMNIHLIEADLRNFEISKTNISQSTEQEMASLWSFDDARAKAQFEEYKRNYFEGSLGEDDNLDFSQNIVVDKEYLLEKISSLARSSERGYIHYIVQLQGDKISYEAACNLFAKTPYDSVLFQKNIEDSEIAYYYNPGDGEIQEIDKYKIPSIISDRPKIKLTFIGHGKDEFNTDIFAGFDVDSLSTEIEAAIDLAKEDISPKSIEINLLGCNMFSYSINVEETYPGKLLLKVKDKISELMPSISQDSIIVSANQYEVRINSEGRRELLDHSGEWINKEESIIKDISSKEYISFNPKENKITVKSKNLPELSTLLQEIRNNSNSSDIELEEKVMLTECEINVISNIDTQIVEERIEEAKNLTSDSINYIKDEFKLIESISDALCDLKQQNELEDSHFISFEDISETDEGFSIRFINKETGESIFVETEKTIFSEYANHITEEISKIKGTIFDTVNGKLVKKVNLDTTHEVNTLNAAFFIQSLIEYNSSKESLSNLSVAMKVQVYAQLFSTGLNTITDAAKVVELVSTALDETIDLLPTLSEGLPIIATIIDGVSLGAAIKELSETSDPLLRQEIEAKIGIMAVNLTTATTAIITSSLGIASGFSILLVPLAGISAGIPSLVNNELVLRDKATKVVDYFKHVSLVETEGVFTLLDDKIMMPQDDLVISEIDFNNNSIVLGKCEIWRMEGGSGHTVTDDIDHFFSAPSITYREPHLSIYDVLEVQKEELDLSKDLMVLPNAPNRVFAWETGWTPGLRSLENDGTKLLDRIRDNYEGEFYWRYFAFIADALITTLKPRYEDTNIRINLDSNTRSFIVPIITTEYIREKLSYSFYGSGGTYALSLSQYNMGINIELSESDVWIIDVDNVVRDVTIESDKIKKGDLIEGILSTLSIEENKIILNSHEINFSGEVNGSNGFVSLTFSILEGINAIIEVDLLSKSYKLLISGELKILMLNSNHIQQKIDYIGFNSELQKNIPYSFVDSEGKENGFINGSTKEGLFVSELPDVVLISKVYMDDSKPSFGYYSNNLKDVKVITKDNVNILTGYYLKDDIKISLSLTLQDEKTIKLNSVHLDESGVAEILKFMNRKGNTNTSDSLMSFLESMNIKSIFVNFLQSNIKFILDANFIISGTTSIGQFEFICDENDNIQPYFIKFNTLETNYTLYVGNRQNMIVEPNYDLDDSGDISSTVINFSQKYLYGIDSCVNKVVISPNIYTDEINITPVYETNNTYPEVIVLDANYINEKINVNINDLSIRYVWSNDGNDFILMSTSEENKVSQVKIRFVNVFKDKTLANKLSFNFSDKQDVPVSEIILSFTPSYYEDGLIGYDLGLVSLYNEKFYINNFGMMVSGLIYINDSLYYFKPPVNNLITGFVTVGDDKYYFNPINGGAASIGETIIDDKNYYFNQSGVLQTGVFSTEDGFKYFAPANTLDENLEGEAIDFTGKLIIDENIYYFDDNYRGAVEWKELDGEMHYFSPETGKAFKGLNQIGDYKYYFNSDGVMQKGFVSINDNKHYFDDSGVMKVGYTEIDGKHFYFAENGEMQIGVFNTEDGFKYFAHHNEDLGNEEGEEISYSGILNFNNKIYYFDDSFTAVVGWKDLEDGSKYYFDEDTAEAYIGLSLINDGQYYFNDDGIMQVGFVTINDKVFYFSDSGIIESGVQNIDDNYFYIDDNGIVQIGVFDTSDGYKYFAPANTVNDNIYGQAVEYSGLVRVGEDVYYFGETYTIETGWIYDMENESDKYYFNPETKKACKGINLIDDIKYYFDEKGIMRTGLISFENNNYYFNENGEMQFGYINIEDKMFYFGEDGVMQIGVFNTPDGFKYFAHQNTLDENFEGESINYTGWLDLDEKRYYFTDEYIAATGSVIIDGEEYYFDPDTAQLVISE

[2] = target: T1, Clostridium difficile toxin B (TcdB); assay: sandwich ELISA: TcdB coated, Habab titrated, TcdA at 40 ng/ml detected
[3] = target: T1, Clostridium difficile toxin B (TcdB); assay: cell-based or functional assay

Row | Binder | EC50 (read off the curve) [1] | EC50 (read off the curve) [2] | neutralization of the TcdB cytopathic effect on Vero cells, fold potency over the Merck antibody [3]
1 | B1 | ~0.01 µg/mL | – | –
2 | B2 | – | ~0.05 µg/mL | ≥ 1000 fold

From patent US20180244760A1 (UNIVERSITY OF MARYLAND BALTIMORE, published 2018)
